Data on 32 sequences can be found in the supplement of paper PMC9170038.

This data set relates to MS2 coat protein. Nature of the data set: apparent KD of MS2 coat protein; higher = weaker reporter binding. Particulars: Eterna round: R107. In outline: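 Normalised binding curves from single clusters were fitted, and the median fit for each design is given as apparent KD. The clusters held designed RNA switches transcribed on-chip from Illumina sequencing clusters. These were titrated with SNAP-549-labelled MS2 coat protein (twofold steps from 0.7 or 1.5 nM to 3 µM, 0.8–1.5 h to 10–20 min per step) in 100 mM Tris-HCl pH 7.5, 80 mM KCl, 4 mM MgCl2, without or with constant ligand.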

Setting [1] is: input ligand: theophylline 20 uM.
Setting [2] is: input ligand: tryptophan 2.4 mM.
Where [3] appears, read: input ligand: theophylline 2 mM.

Take “AGUGGUGCAACUGAUACCAGAUUUAUACGAGACAUGAGGAUCACCCAUGUCGAAAGACAAAUCCCUUGGCAGCAGACACGAUCCC [theeternabot_sameState_MS2_Theo_B_25]”: the “apparent KD of MS2 coat protein” value reads like this: (input ligand: arginine 13.2 mM) 9.88 nM; under setting [1], 10.4 nM; under setting [2], 9.65 nM.
With “CAUGCGGCUAGUGAGCGUGGUGAGUAAAGGCGAGGACCGGUACGGCCGCCACUCGAGGCAAGACAUGAGGAUCACCCAUGUUGUA [theeternabot_exclusion_MS2_Trp_A_27]”, the “apparent KD of MS2 coat protein” value reads like this: (input ligand: arginine 13.2 mM) 10.8 nM; under setting [1], 19.3 nM; under setting [3], 15.9 nM.
Regarding “ACGAACUGUAGUGAUACCAGACGUACAUGAGGAUCACCCAUGUUGUAAACAUGGUUAAUAGUCCCUUGGCAGCACAGUUAGUUCG [JR_ExcTheophyB_Sub002]”, the “apparent KD of MS2 coat protein” value reads like this: (input ligand: arginine 13.2 mM) 105 nM; under setting [1], 612 nM; under setting [2], 695 nM.
In the same order, the values of “CGUAUCGUAACUGAUACCAGUGUACUGACAUGAGGAUCACCCAUGUUGGGUUUUGUUGUACACCCUUGGCAGCAGAAUCGAUACG [AstrosExyTheB#6]” are 52.1 nM, 68.6 nM and 62.9 nM.
With “UUACAUGAGGAUCACCCAUGUCAUACAGAAGGAGCGUCACAUAAGACAGGUAGGUCGCUGUUAUAUCAUACUAUUAUAUCCUCUA [JR_Nu_ExcArginiA_Sub028]”, the “apparent KD of MS2 coat protein” value (input ligand: arginine 13.2 mM) stood at 22 nM; the “apparent KD of MS2 coat protein” value (input ligand: none) stood at 40.4 nM; the “apparent KD of MS2 coat protein” value under setting [1] stood at 53.5 nM; the “apparent KD of MS2 coat protein” value under setting [3] worked out at 38.2 nM; the “apparent KD of MS2 coat protein” value under setting [2] stood at 33 nM.
For “GAUAGUUGAUGGGAUACCAGCCUACACAUGAGGAUCACCCAUGUGAUUCGUGUACGACUGGGCCCUUGGCAGCCCAUAUUGUGUA [#12 Same State - Theophylline B]”, the “apparent KD of MS2 coat protein” value (input ligand: arginine 13.2 mM) was 46.1 nM, the “apparent KD of MS2 coat protein” value under setting [1] stood at 202 nM and the “apparent KD of MS2 coat protein” value under setting [2] is 128 nM.
For the sequence “AGCUCGCGAAAGCGAGCAACAUGAUCCGAAGGAGCGGGCGAAAGCCCAGGUAGGUCGCGGACAUGAGGAUCACCCAUGUCUCCUU [MAT - Exclusion Arginine A - Mod of Eli - D13]”, the “apparent KD of MS2 coat protein” value (input ligand: arginine 13.2 mM) turned out to be 41 nM; the “apparent KD of MS2 coat protein” value (input ligand: none) was found to be 70.9 nM; the “apparent KD of MS2 coat protein” value under setting [1] is 88.4 nM; the “apparent KD of MS2 coat protein” value under setting [3] was 94.8 nM; the “apparent KD of MS2 coat protein” value under setting [2] was 77 nM.
Turning to “UAUAUAUGGAUGGAUACCAGCAGAGAAAACGUUUAUCCUAACAUGAGGAUCACCCAUGUAUGCCCUUGGCAGCUGUUUAUAUAUA [8.J]”, the “apparent KD of MS2 coat protein” value is 21 nM (input ligand: arginine 13.2 mM), 33.9 nM under setting [1] and 24.3 nM under setting [2].
Turning to “AUUUAUUAGACGGCCGCCACUUGAAAGCGACCUCAUAAAUGGGAACAUGAGGAUCACCCAUGUAAGAGGACCGGGUCUAGUAGAU [TryptB-ms2@45]”, the “apparent KD of MS2 coat protein” value is, setting by setting: (input ligand: arginine 13.2 mM) 132 nM; under setting [1], 150 nM; under setting [3], 318 nM.
On to “AAAAUAAAAUAAAAGGUGGAAAUAAGGCGGCGAGGACCGGUACGGCCGCCACUCGCGUACAUGAGGAUCACCCAUGUCUGAAAAU [Same State - Tryptophan A (Freestyle 1)]”, for which the “apparent KD of MS2 coat protein” value (input ligand: arginine 13.2 mM) was 20.3 nM, the “apparent KD of MS2 coat protein” value under setting [1] turned out to be 28.2 nM and the “apparent KD of MS2 coat protein” value under setting [3] is 26.6 nM.
For the sequence “UGUAUGGACUGAAGGAGCGCCUCAAAAUAACAUGAGGAUCACCCAUGUAGGCGAAAGCCUGGGCAGGUAGGUCGCAGUCCAUACU [ArgBX 2 #StaticStem #MS2Late]”, the “apparent KD of MS2 coat protein” value runs as follows: (input ligand: arginine 13.2 mM) 20.9 nM; (input ligand: none) 12.9 nM; under setting [1], 21.4 nM; under setting [3], 13.4 nM; under setting [2], 12.4 nM.
As for “ACAUGAGGAUCACCCAUGUGUGUAAGUCCUCGAGGACCGGUACGGCCGCCACUCGAUUGAGUGUAAGUUGAAUGUAACAUUCAAC [whbob_SS_trypto A_2s10]”, the “apparent KD of MS2 coat protein” value came to 16.4 nM (input ligand: arginine 13.2 mM), 22.8 nM under setting [1] and 18.1 nM under setting [3].
With “UACCCAUGAGUUGGAAAAGCUCAUGGGUAUCGAGGACCGGUACGGCCGCCACUCGGCUGUACAUGAGGAUCACCCAUGUCAGGGU [#1 Same State - Tryptophan A Attempt #24 (HarryS)]”, the “apparent KD of MS2 coat protein” value was 29.9 nM (input ligand: arginine 13.2 mM), 367 nM under setting [1] and 721 nM under setting [3].
Turning to “AAAAUAAAGGCGGCCGCCACUAGAGUUAGGCUUAUGUACUGGGUAACAUGAGGAUCACCCAUGUAUAGGACCGGGCCAUAAUAAA [Same State - Tryptophan B (Freestyle 2)]”, the “apparent KD of MS2 coat protein” value amounted to 28 nM (input ligand: arginine 13.2 mM); 57.3 nM (input ligand: none); 82.1 nM under setting [1]; 73 nM under setting [3]; 66.5 nM under setting [2].
As to “GAGUAGAAGACGGCCGCCACUAAACAUGAGGAUCACCCAUGUCGUGAUCCGUUACCUAGAGUAGAUAGGACCGGGUCAUAUAGUC [Exclusion Tryptophan B GF 15]”, the “apparent KD of MS2 coat protein” value came to 27.5 nM (input ligand: arginine 13.2 mM), 41.5 nM under setting [1] and 30.2 nM under setting [3].
Take “ACAAUAUUGAGUUUGUCUCAAGUUUCAGAAGGAGCGUGAGGAAUCACAGGUAGGUCGCUGAUAACAUGAGGAUCACCCAUGUAUU [JR_SSArginiA_Sub005]”: the “apparent KD of MS2 coat protein” value by setting is: (input ligand: arginine 13.2 mM) 26.1 nM; (input ligand: none) 35.7 nM; under setting [1], 43.1 nM; under setting [3], 45.1 nM; under setting [2], 35 nM.
Take “UACCUUAACACGGCCGCCACUCUCUAAUAGGAUCAUGGUACCGCACAUGAGGAUCACCCAUGUUUGAGGACCGGGUGUUAUGAAG [theeternabot_sameState_MS2_Trp_B_24]”: the “apparent KD of MS2 coat protein” value by setting is: (input ligand: arginine 13.2 mM) 14.8 nM; under setting [1], 25 nM; under setting [3], 20.2 nM.
In the same order, the values of “CACUACAUGAGGAUCACCCAUGUAUACUGACGAGGACCGGUACGGCCGCCACUCGAACCGAAACCGACUUCAUUCUGUGUACCAU [theeternabot_sameState_MS2_Trp_A_26]” are 15 nM, 22.7 nM and 19.3 nM.
Regarding “UUAAAUGUGACGGAUACCAGCGUGUUGUAGAACAUGAGGAUCACCCAUGUAGUGAUCAUGCGCCCUUGGCAGCUGGUAUGUUUGA [7.aA]”, the “apparent KD of MS2 coat protein” value (input ligand: arginine 13.2 mM) turned out to be 189 nM, the “apparent KD of MS2 coat protein” value under setting [1] turned out to be 543 nM and the “apparent KD of MS2 coat protein” value under setting [2] worked out at 480 nM.
In the same order, the values of “CCGCCCACGAAUGAUACCAGCUAAAAUCAUGUACCAGACACAUGAGGAUCACCCAUGUAAAGCCCUUGGCAGCGUACGCCACCCG [e-theoB-?]” are 25.5 nM, 43.7 nM and 25.8 nM.
“UCUAACAUGAGGAUCACCCAUGUGGGUUAUCGAGGACCGGUACGGCCGCCACUCGACCAGUAUAACUGGCUAGAACGUAUUUGAU [theeternabot_sameState_MS2_Trp_A_34]”: the “apparent KD of MS2 coat protein” value is, setting by setting: (input ligand: arginine 13.2 mM) 31.1 nM; under setting [1], 53.6 nM; under setting [3], 49.4 nM.
Regarding “GUCGCUGAGGGAAGGAGCGUGAAGACAUGAGGAUCACCCAUGUAGAGGCGCCGAAGGCGUUCGCAGGUAGGUCGCCCUCAGUGAA [#1 Same State - Arginine B Attempt #25 (HarryS)]”, the “apparent KD of MS2 coat protein” value is 12.4 nM (input ligand: arginine 13.2 mM); 14.1 nM (input ligand: none); 22.1 nM under setting [1]; 16.1 nM under setting [3]; 15.1 nM under setting [2].
On to “UCGCCAUUGACGGCCGCCACUCAAUGGUCUUCUCUGAACAUAAUUAACAUGAGGAUCACCCAUGUGAGGACCGGGUCGGUUAGAC [theeternabot_exclusion_MS2_Trp_B_24]”, for which the “apparent KD of MS2 coat protein” value runs as follows: (input ligand: arginine 13.2 mM) 17.4 nM; under setting [1], 23.5 nM; under setting [3], 20.4 nM.
With “GGGUCCGUCGGAAGGAGCGACAUGAGGAUCACCCAUGUCUCCCGUUAUGGGAGUUCUUUAGGUCAGGUAGGUCGCCGGCGGGUCC [#1 Exclusion - Arginine B Attempt #13 (Inspired by Omei)]”, the “apparent KD of MS2 coat protein” value runs as follows: (input ligand: arginine 13.2 mM) 65 nM; (input ligand: none) 141 nM; under setting [1], 196 nM; under setting [3], 164 nM; under setting [2], 119 nM.
Take “ACGUCACGUUUACUCGUGGUUUCGAUCGAUACCAGUAGCGAGAGUUACCCUUGGCAGCGACAUGAGGAUCACCCAUGUGCGAAGA [XTheo A #26]”: the “apparent KD of MS2 coat protein” value worked out at 12.2 nM (input ligand: arginine 13.2 mM), 14 nM under setting [1] and 11.7 nM under setting [2].
As to “AGAUGAGUCACGGCCGCCACUCUUAUCAGGAUCACCCAUGGUUAACAUGAGGAUCACCCAUGUCUGAGGACCGGGUGAUGAGCAU [XTryp B #2]”, the “apparent KD of MS2 coat protein” value is, setting by setting: (input ligand: arginine 13.2 mM) 18.3 nM; under setting [1], 31.4 nM; under setting [3], 25.3 nM.
“UAUUUUGUGAUGGAUACCAGCAGAGAAAACGUUUAUCCUAACAUGAGGAUCACCCAUGUAUGCCCUUGGCAGCUGUUGUGGGAUA [8.Q]”: the “apparent KD of MS2 coat protein” value reads like this: (input ligand: arginine 13.2 mM) 24.9 nM; under setting [1], 42 nM; under setting [2], 29.9 nM.
As to “UGUAUGUGAUCUGAUACCAGCGUUGAUAACCUGAGGAUCACCCUGGUAAGGCGAAAGCCACGCCCUUGGCAGCAGAUCGCAUACU”, the “apparent KD of MS2 coat protein” value runs as follows: (input ligand: arginine 13.2 mM) 158 nM; under setting [1], 79.1 nM; under setting [3], 19.8 nM; under setting [2], 239 nM.
Regarding “UUCACGGGCACGGCCGCCACUAACCAACAUGAGGAUCACCCAUGUGUAUUGGACGACCUCUUUGCUAGGACCGGGUGUAUGGUUC [theeternabot_exclusion_MS2_Trp_B_15]”, the “apparent KD of MS2 coat protein” value (input ligand: arginine 13.2 mM) is 25.3 nM, the “apparent KD of MS2 coat protein” value under setting [1] is 32.3 nM and the “apparent KD of MS2 coat protein” value under setting [3] was determined as 32.6 nM.
With “UACUUGCUGACGGCCGCCACUAGAACAUGAGGAUCACCCAUGUAUGGCGGCCGUCAUGGGUGGACUAGGACCGGGUCAGCAAGAU [(Trp1)-(Ms2)-(T)'-(M)'-(Trp2)_Design7]”, the “apparent KD of MS2 coat protein” value is, setting by setting: (input ligand: arginine 13.2 mM) 11.4 nM; under setting [1], 14.6 nM; under setting [3], 11.7 nM.
With “AAUCGGACUCGUACAGCAUGUUGAGCGGAAGGAGCGGCGAAAGAGCCAGGUAGGUCGCCGCCGACAUGAGGAUCACCCAUGUACG [Orenti]”, the “apparent KD of MS2 coat protein” value by setting is: (input ligand: arginine 13.2 mM) 27.3 nM; (input ligand: none) 119 nM; under setting [1], 177 nM; under setting [3], 258 nM; under setting [2], 110 nM.
In the same order, the values of “ACAAGAGGGAUGGAUACCAGCGACAUGAGGAUCACCCAUGUAUGAGGAUCAGCCAUGUUAUGCCCUUGGCAGCCACGAACAUCAG [SSAMULLIN]” are 27.5 nM, 21.2 nM, 30.8 nM, 125 nM and 18.2 nM.
